Legend:
[1] = molecular target: SARS-CoV papain-like protease (PLpro), trypsin-trimmed product of P-PLpro(C2)-His6 (SARS-CoV)
[2] = molecular target: SARS-CoV papain-like protease (PLpro), trypsin-trimmed product of P-PLpro(C2)-His6 (SARS-CoV); remark: listed apart in the source

Chain of ISG15(C)-AMC (P05161 82-157): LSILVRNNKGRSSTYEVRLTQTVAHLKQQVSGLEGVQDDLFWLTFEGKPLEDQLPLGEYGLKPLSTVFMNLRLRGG

Substance | kcat/KM of hydrolysis of Ub-AMC by PLpro (fluorescence, pH 7.8, 25 °C) [1] | kcat/KM of hydrolysis of ISG15(C)-AMC by PLpro (fluorescence, pH 7.8, 25 °C) [2]
Ub-7-amino-4-methylcoumarin | 19800 M⁻¹ s⁻¹ | –
ISG15(C)-AMC (from UniProt P05161 82-157) (domain or fragment) | – | 94000 M⁻¹ s⁻¹
